Experimental findings from US20130101605A1 are described below.

The target in assay [1] is RGM of chick tectal membranes (chick) (UniProt Q8JG54). The experiment in a line: cell-based or functional assay.
The target in assay [2] is DCC (Deleted in Colorectal Cancer) expressed on COS-7 cells. Put plainly: RGM-AP binding to transfected COS-7 cells.
Assay [3] addresses mouse Neogenin expressed on COS-7 cells (mouse) (UniProt P97798). The experiment in a line: AP fusion binding to transfected COS-7 cells, saturation and Scatchard analysis.
Chain of UniProt P97798 (P97798 37-1492): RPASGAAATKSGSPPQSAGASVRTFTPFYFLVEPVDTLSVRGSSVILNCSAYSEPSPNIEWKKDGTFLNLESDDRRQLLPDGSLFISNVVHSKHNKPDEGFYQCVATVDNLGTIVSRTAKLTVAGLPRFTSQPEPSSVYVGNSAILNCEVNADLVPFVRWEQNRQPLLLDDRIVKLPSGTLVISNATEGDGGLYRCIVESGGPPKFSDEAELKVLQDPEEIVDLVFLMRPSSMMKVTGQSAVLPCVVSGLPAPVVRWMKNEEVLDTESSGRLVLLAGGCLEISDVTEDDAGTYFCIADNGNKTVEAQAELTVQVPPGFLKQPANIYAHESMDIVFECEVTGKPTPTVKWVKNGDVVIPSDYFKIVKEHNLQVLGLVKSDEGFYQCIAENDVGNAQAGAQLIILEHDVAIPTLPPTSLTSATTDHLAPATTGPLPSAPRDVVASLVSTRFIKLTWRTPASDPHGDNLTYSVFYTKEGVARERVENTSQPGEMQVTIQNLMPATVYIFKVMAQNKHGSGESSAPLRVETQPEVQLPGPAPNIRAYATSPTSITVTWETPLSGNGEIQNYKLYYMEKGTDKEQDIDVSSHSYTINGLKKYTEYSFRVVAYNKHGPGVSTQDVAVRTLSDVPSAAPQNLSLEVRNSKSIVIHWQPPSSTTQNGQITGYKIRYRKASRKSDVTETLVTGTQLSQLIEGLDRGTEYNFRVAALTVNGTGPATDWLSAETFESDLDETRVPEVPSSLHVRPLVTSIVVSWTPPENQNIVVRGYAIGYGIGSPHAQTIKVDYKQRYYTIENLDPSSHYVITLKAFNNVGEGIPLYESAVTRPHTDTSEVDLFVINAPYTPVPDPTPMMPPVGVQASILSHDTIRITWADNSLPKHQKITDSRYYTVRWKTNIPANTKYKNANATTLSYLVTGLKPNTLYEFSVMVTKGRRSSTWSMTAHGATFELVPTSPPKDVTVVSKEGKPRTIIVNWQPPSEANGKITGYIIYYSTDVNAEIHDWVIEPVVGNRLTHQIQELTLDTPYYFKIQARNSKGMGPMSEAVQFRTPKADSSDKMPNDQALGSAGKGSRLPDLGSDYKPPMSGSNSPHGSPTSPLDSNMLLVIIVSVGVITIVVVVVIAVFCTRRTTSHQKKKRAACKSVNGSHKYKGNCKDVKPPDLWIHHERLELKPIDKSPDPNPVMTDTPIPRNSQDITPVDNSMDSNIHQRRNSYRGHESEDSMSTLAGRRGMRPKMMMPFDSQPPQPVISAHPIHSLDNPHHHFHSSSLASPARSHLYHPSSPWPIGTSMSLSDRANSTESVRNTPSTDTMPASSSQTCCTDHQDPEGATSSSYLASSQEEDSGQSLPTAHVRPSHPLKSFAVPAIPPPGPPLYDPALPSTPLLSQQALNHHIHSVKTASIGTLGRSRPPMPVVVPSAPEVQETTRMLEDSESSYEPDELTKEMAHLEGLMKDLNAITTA

Chain of UniProt Q8JG54 (Q8JG54 150-404 limits assumed): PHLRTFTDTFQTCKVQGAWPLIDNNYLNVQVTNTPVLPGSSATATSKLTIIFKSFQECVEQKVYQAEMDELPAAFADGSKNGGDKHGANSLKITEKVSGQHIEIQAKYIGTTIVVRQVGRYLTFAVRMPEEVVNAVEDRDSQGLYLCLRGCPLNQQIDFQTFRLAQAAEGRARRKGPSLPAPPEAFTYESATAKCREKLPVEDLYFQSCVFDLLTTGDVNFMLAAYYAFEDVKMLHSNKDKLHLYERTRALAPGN

In assay [1], “Soluble ectodomain of chick Neogenin-1 (1-1027) with a carboxyl MycHis tag (from UniProt Q90610 1-1027) (receptor)” showed a retinotectal stripe assay: blockade of retinal axon stripe preference of 400 nM. For the substance “chick RGM-AP fusion protein (chick RGM aa 28 to 403 fused to human placental alkaline phosphatase, carboxy-terminal Myc His tag) (from UniProt Q8JG54 28-403; P05187 23-511) (ligand)”, in assay [2], the fold lower affinity than for Neogenin was found to be 50 fold. The Kd (in general, the concentration at which binding is half-saturated) in assay [3] amounted to 0.23 nM.
